Experimental data taken from patent publication US20160347802A1 (MAX PLANCK GESELLSCHAFT ZUR FOERDERUNG DER WISSENSCHAFTEN E …, published 2016).

B1: human DRAXIN, AVEXIS prey or bait protein (ligand)
chain: GALAPGTPARNLPENHIDLPGPALWTPQASHHRRRGPGKKEWGPGLPSQAQDGAVVTATRQASRLPEAEGLLPEQSPAGLLQDKDLLLGLALPYPEKENRPPGWERTRKRSREHKRRRDRLRLHQGRALVRGPSSLMKKAELSEAQVLDAAMEESSTSLAPTMFFLTTFEAAPATEESLILPVTSLRPQQAQPRSDGEVMPTLDMALFDWTDYEDLKPDGWPSAKKKEKHRGKLSSDGNETSPAEGEPCDHHQDCLPGTCCDLREHLCTPHNRGLNNKCFDDCMCVEGLRCYAKFHRNRRVTRRKGRCVEPETANGDQGSFINV
notes: It was tested in both bait and prey orientations
B2: zebrafish DraxinA, AVEXIS prey or bait protein (ligand)
chain: SEISSDNFKQSLTPSTTTSKEHPETGLTGGRQQKRHWSGKERDSAGLFSQRHMDRLEDDGTSMEGLSPVRLEMGPGDTMKAEVHGEVRASAQMRQGSHPAEGELNRKGRRHSHRLLAEHRKHGGKKDKGRGKGDLSDPEPELDSLLKDLNAFEDGLNTSPPNYNSVPLNEVPSPLSPILVTTAIKGHPPTLPPASTKPQKSSQGRTQGEVMPTLDMTLFDWTDYEDMKPADSWPSNKRKDKRRSKNKSNGNTTTEAGIVEPCDHHLDCLSGSCCDLREFECKPHNRGLNNKCFDDCMCEEGLRCYAKFHRKRRVTRRRGRCVDPESVNSNQGAFITV
notes: Prey and bait forms of the same protein are kept as one molecule; Preys are pentameric except in the monomeric-prey experiments; also called DraxinA prey protein

Legend:
[1] = molecular target: T1, human Netrin-4, AVEXIS protein (human, UniProt Q9HB63 19-628); test: AVEXIS, prey NTN4 on bait DRAXIN
T1 construct: not shown: AVEXIS tag (bait or prey)
T1 sequence (looked up): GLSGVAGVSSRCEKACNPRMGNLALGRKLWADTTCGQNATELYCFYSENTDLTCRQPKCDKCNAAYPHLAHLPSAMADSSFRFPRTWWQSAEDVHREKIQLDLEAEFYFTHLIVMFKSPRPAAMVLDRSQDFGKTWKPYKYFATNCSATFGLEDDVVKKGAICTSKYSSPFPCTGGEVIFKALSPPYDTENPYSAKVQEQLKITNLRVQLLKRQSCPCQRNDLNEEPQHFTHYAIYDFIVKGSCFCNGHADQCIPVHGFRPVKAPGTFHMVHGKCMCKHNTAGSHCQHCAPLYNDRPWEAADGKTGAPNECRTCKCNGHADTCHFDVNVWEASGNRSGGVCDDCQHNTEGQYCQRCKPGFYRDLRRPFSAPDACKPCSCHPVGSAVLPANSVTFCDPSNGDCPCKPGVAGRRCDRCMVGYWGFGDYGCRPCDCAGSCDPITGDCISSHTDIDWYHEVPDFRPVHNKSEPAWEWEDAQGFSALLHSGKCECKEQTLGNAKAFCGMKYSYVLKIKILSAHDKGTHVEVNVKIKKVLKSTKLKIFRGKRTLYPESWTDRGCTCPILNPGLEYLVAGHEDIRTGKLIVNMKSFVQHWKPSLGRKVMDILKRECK
Description: (§1) The Matn4-bait served as an internal prey-protein control and was used for normalization of the A486 nm values; conditioned medium (CM) serves as negative control; n=3.

[2] = molecular target: T2, biotinylated recombinant human UNC5B (human, UniProt Q8IZJ1 27-377); test: AVEXIS, prey DRAXIN on bait UNC5B
T2 construct: Made in HEK293-6E and immobilised on an SA chip
Description: as §1

[3] = molecular target: T3, human Netrin-G1, AVEXIS protein (human, UniProt Q9Y2I2 29-510); test: AVEXIS, prey NTNG1 on bait DRAXIN
T3 construct: not shown: AVEXIS tag (bait or prey)
T3 sequence (looked up): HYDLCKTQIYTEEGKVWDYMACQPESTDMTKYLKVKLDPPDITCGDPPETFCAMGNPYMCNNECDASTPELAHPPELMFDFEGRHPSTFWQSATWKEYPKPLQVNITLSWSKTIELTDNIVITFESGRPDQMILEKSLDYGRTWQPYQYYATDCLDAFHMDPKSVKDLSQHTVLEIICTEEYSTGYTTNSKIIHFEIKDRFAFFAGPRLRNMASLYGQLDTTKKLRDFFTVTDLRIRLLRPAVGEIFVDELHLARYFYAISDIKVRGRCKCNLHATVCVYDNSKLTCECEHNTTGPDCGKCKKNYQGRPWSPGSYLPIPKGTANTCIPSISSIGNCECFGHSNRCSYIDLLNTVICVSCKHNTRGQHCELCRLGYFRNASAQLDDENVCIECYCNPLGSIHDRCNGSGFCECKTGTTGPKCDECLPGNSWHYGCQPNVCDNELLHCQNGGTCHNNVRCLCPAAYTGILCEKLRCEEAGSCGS
Description: as §1

[4] = molecular target: T4, human Netrin-G2, AVEXIS protein (human, UniProt Q96CW9 18-507); test: AVEXIS, prey NTNG2 on bait DRAXIN
T4 construct: not shown: AVEXIS tag (bait or prey)
T4 sequence (looked up): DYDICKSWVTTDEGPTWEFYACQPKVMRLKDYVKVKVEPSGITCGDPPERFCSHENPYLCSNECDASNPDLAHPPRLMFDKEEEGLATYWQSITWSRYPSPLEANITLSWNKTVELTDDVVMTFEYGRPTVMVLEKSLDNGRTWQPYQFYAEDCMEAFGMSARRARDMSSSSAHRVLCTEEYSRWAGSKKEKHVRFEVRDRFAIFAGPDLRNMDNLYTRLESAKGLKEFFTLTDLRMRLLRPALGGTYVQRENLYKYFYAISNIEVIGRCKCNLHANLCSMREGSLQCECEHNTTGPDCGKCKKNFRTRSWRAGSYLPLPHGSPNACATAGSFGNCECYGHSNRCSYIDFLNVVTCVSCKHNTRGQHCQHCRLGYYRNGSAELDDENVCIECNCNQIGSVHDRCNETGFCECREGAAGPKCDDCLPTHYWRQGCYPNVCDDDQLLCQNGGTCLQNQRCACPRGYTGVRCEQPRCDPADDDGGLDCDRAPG
Description: as §1

[5] = molecular target: T5, human Netrin1, recombinant AVEXIS protein (biotinylated when immobilised) (human, UniProt O95631 25-604); test: AVEXIS, prey on bait NTN1; dark = Binding
T5 construct: also called NTN1
Description: as §1

[6] = molecular target: T1, human Netrin-4, AVEXIS protein; test: AVEXIS, prey on bait NTN4; white = No binding
Description: as §1

[7] = molecular target: T3, human Netrin-G1, AVEXIS protein; test: AVEXIS, prey on bait NTNG1; white = No binding
Description: as §1

[8] = molecular target: T4, human Netrin-G2, AVEXIS protein; test: AVEXIS, prey on bait NTNG2; white = No binding
Description: as §1

[9] = molecular target: T2, biotinylated recombinant human UNC5B; test: AVEXIS, prey on bait UNC5B; white = No binding
Description: as §1

[10] = molecular target: T6, human DRAXIN 21 amino acid Netrin binding fragment, AVEXIS prey or bait protein (human); test: AVEXIS, prey on bait DRAXIN 21aa; white = No binding
T6 construct: Tested in both bait and prey orientations; also called human 21 amino acid DRAXIN fragment; derived 21 amino acid peptide; not shown: AVEXIS tag (rat Cd4d3+4 and prey or bait module)
T6 peptide: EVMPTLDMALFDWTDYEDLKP
Description: as §1

[11] = molecular target: B2; test: AVEXIS, prey on bait zDraxinA, lower value; white = No binding
[12] = molecular target: B2; test: AVEXIS, prey on bait zDraxinA, upper value; white = No binding
[13] = molecular target: T7, zebrafish DraxinB, AVEXIS protein (zebrafish); test: AVEXIS, prey on bait zDraxinB, lower value; white = No binding
T7 chain: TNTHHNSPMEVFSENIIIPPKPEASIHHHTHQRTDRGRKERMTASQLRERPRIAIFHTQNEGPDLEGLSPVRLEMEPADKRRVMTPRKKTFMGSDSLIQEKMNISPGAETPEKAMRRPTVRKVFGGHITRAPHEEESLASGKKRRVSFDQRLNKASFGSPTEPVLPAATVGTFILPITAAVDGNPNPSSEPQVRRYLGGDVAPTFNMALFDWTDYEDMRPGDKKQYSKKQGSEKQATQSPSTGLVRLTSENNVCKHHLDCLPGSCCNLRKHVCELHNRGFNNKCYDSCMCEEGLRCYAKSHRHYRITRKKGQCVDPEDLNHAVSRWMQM

[14] = molecular target: T7, zebrafish DraxinB, AVEXIS protein; test: AVEXIS, prey on bait zDraxinB, upper value; white = No binding
[15] = molecular target: T8, Matn4 ECD, mono-biotinylated bait protein (positive control); test: AVEXIS, prey on bait Matn4 (+), positive control for the prey; dark = Binding
T8 construct: extracellular domain; also called Matn4-bait
Description: as §1

[16] = molecular target: B1; test: AVEXIS, pentameric prey human DRAXIN on bait zDraxinA
[17] = molecular target: the molecule itself; test: AVEXIS, pentameric prey zebrafish DraxinA on bait zDraxinA
[18] = molecular target: T7, zebrafish DraxinB, AVEXIS protein; test: AVEXIS, pentameric prey zebrafish DraxinA on bait zDraxinB
[19] = molecular target: the molecule itself; test: AVEXIS, prey on bait zDraxinA, lower value; white = No binding
[20] = molecular target: the molecule itself; test: AVEXIS, prey on bait zDraxinA, upper value; white = No binding

Row | Binder | binding result [1] | binding result [2] | binding result [3] | binding result [4] | A486nm [5] | A486nm [6] | A486nm [7] | A486nm [8] | A486nm [9] | A486nm [10] | A486nm [11] | A486nm [12] | A486nm [13] | A486nm [14] | A486nm [15] | binding result [16] | binding result [17] | binding result [18] | A486nm [19] | A486nm [20]
1 | B1 | no binding | no binding | no binding | no binding | 0.361 | 0.076 | 0.077 | 0.072 | 0.078 | 0.063 | 0.06 | 0.06 | 0.058 | 0.056 | 0.213 | – | – | – | – | –
2 | B2 | – | – | – | – | – | – | – | – | – | – | – | – | 0.059 | 0.057 | – | no binding | no binding | no binding | 0.06 | 0.062
